Experimental data reported in publication PMC6226536.

Target: SlOFP20 (full length, expressed in N. benthamiana leaf cells) (tomato)

cells in which SlTRM5 stayed on the microtubules on co-expression with SlOFP20 in N. benthamiana leaf epidermal cells (% of the cells): 71
Substance: SlTRM5 (full length, expressed in N. benthamiana leaf cells) (natural protein)
